How the values were obtained:
[1] = target: GPC3ΔGPI-FLAG重组蛋白 (GPC3 without its GPI region, C-terminal FLAG tag) (Homo sapiens (Human)) (UniProt P51654); assay: ELISA on coated GPC3ΔGPI-FLAG, antibody pre-treated 2 h at 70℃, reference 4℃
[2] = target: GPC3ΔGPI-FLAG重组蛋白 (GPC3 without its GPI region, C-terminal FLAG tag) (Homo sapiens (Human)) (UniProt P51654); assay: ELISA on coated GPC3ΔGPI-FLAG, antibody pre-treated 2 h at 90℃, reference 4℃
[3] = target: GPC3ΔGPI-FLAG重组蛋白 (GPC3 without its GPI region, C-terminal FLAG tag) (Homo sapiens (Human)) (UniProt P51654); assay: ELISA on coated GPC3ΔGPI-FLAG, nanobody pre-treated 2 h at 90℃, reference 4℃
[4] = target: mCherry-GPC3 (mCherry fused to the N-terminus of GPC3, stably expressed on HEK293T cells) (UniProt P51654); assay: immunofluorescence colocalisation on HEK293T cells expressing mCherry-GPC3, confocal microscopy
[5] = target: GPC3ΔGPI-FLAG重组蛋白 (GPC3 without its GPI region, C-terminal FLAG tag) (Homo sapiens (Human)) (UniProt P51654); assay: ELISA on coated GPC3ΔGPI-FLAG, nanobody pre-treated 2 h at 70℃, reference 4℃

| Molecule | 抗原结合能力下降 (fall of OD450 against the 4℃ sample) [1] [%] | 抗原结合能力下降 (fall of OD450 against the 4℃ sample) [2] [%] | 抗原结合能力下降 (fall of OD450 against the 4℃ sample) [3] [%] | 皮尔森相关系数 (Pearson correlation of mCherry and Alexa Fluor 488 signals) [4] | 抗原结合能力下降 (fall of OD450 against the 4℃ sample) [5] [%] |
| --- | --- | --- | --- | --- | --- |
| HN3-hFc融合抗体 (known GPC3 nanobody HN3 fused to human Fc, bought from Creative Biolabs) (Fc fusion) | 42.9 | 58.3 |  |  |  |
| G11纳米抗体 (GPC3 nanobody G11, His-tagged, from pET22b-G11-His) (VHH, not shown: small tags and cut ends) VHH: QVQLVESGGALVQPGGSLRLSCAASSSDFSRNALRWYRQAPGKEREWVCGINWTGSGYAYEDSVKGRFTCSRDDARNTVYLQLNSLKPEDTAVYYCAPLACSNCFPYKHYVYWGQGTQVTVSS |  |  | 30.8 | 0.929 | 16.7 |
